The data set is described as follows: yeast display, Sf9 membrane polyspecificity reagent, FACS + sequencing; frameworks hold sequencing errors. A digest of the protocol: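 Galactose induction of a Saccharomyces cerevisiae BJ5465 synthetic nanobody display library ran 36–48 hours. The cells were then stained for 1 hour at 4 °C with 10% biotinylated, detergent-solubilized Sf9 membrane reagent, pulled down on streptavidin microbeads and FACS-sorted into low and high (top ~1%) gates on expression and reagent-binding fluorescence. Labels for polyreactivity follow the gate of origin.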
With “QVQLVESVGGLDQAGGSLRLSCAASGFTFQYYAMGWYRQAPGKERELVAAITSNGGGTYYADSVKGRFTISRDNAKNTVYLQMNSLKPEDTAVYYCAADRWYSMDYWGQGTQVTVSS”, the “polyreactivity (PSR sort gate)” value is recorded as “high polyreactivity”.
With “QVQLVESVGGLGQAGGSLRLSCAASGSTFAGYTMGWYRQAPGKERELVAANTSRGGRTYYADSVKGRFTISRDNAKNTVYIQMNSLKPEDTAVYYCAAVSRYYAELMYYWGQGTQVTVSS”, the “polyreactivity (PSR sort gate)” value is reported as “high polyreactivity”.
The value for “QVQLVESVGGLLQAGGSLRLSCAASGFTFSGNGRGWYRQAPGKERELVAAITSTGNTYYADSVKGRFTISRDNAKKTVYLQMNRLKPEDTAVYYCARRGDLLYDYWGQGTQVTVSS” was “low polyreactivity”; that for “QVQLVESVGGLLQAGGSLRLSCAASGSIFRGYAMGWYRQAPGKERDLVAAISWSGGSTYYADSVKGRFTISRDNAKNTVYLQMNRLKPEDTAVYYCAADRVVFGYWYYYWGQGTQVTVSS” was “high polyreactivity”.
The value for “QVQLVESVGGLLQAGGSLRLSCDASGSIFADYAMGWYRQAPGKERELVAVITSSGGSTNYADSVKGRFTISRDNAKNTVYLQMNSLKPEDTAVYYCNRRPYPSYDYWGQGTQVTVSS” was “low polyreactivity”; that for “QVQLVESVGGLVHAGGSLRLSCAASGRTFGYNAMGWYRQATGKERELVAAISFRGGTTYYADSVKGRFTISRDNAKITVYLQMNCLIPEDPSVYYCAARYYYRYTGGRLDYWGQGTQVTVSS” was “high polyreactivity”.
On to “QVQLVESVGGLVHAGGSLRLSCAASGSTFRYNAMGWYRQAPGKDRELVAAISWSGGSTYYADSVKGRFTISRDNAKNTVYFQMNSLIPEDTAVYYCAKVYFWGALSPDKYDEDYWGQGTQVTVSS”, for which the “polyreactivity (PSR sort gate)” value was “low polyreactivity”.
Next, “QVQLVESVGGLVKAGGSLRLSCAASGRTFYNAMGWYRQAPGKERELVAAISSDGSTYYADSVKGRFTISRDNAKNTVYLQMNSLKPEDTAVYYCARDLGSWYYQVRFGYWGQGTQVTVSS”: “high polyreactivity”; “QVQLVESVGGLVLAGGSLRLSCAASGFTFPRYVMGSYRPAPGKAREFVAAITFSGGSTYYADSVKGRFTIARDNAKNTVYLQMNSLKPEDTAVYYCAAGASLWRLGLKRGYWGQGTQVTVSS”: “low polyreactivity”; “QVQLVESVGGLVQAGASLPLSCAASGRIFPYYAMGWYRQAPGKESEFVAAITKRGGSTSYADSVKGRFTISRDNAKNTVYLQMNSLKPEDTAVYYCAARRGSGFFTYYGGAFWGQGTLVTVSS”: “low polyreactivity”.
On to “QVQLVESVGGLVQAGASLRLSCAASGLNIYTYAMGWYRQAPGKERELVAAIRWRGGRTYYADSVNGRFTISRDNAKNTVYLQMNSLKPEDTAVYYCAADYSNLYKSDYWGQGTQVTLSS”, for which the “polyreactivity (PSR sort gate)” value is “low polyreactivity”.
Turning to “QVQLVESVGGLVQAGCTLPLSCAASGLIFYLYAMGWYRQATGKERELVARISRGGSTNYADSVKGRFTISRDNAKNTVYLQMNSLNPDDTAVYYCAADWFFSLGEMYYWGQGTQVTVSS”, the “polyreactivity (PSR sort gate)” value is on record as “low polyreactivity”.
The value for “QVQLVESVGGLVQAGGRLRLSCAASGSTFPRYTRGWYRQAPGKERELVAAISSRGGSTIYADSVKGRFTNSRDNAMNTVYLEMNSLKPEDSAVYYCAARRASRDGYWGQGTQVTVSS” was “high polyreactivity”; that for “QVQLVESVGGLVQAGGSLPLSCAASGRTFTSYAMGWYRQAPGKERELVAAINYSGGSTYYADSVKGRFTISRDNAKNTVYLQMNSLKPEETAVYYCAKSSHAREYYYWGQGTQVTVSS” was “low polyreactivity”; that for “QVQLVESVGGLVQAGGSLRIICAASGSIFTDNAMGWYRQAPGTERELVAAISRSGGNTYYADSVKGRFTISRDNAKNTVYLQMNSLKPEDTAVYYCAARQKGTGNYWGQGTQVTVSS” was “high polyreactivity”.
In the case of “QVQLVESVGGLVQAGGSLRLICAASGSTIFYNAMGWYRQAPGKERELVAAISWSGGRTYYADSVKGRFTISRDNAKNTVYLQMYRLKPEDNAVYYCNTVVSKYYKVGFGSWGQGTQVTVSS”, the “polyreactivity (PSR sort gate)” value is “high polyreactivity”.
Next, “QVQLVESVGGLVQAGGSLRLSCAASGFIFRKYVMGLYIQAPGKERELVAAITRSCTSTYYADSVKGRFTISRDNAKNTVYLQMNSLKPEDTAVYYCNVGSDGWYYWGQGTQVTVSS”: “low polyreactivity”; “QVQLVESVGGLVQAGGSLRLSCAASGFIFWDNAMGWYRQAPGKERELVAAISKSGTRTYYADSVKGRFTISRDNAKNTVYLQMNSLKPEDTAVYSCAAEGSGYEYYYWGQGTQVTVSS”: “high polyreactivity”.
Next, “QVQLVESVGGLVQAGGSLRLSCAASGFIQGAYAMGWYRPAPGKERELVAAITSSGGSTYYADSVKGRFTISRDNAKNTVYLQMNSLKPEDTAVYYCNTVYVYGPEYDYWGQGTQVTVSS”: “high polyreactivity”.
The value for “QVQLVESVGGLVQAGGSLRLSCAASGFIVSTYAMGWYRQAPGKERELVAAITNSGGSTYYADSVKGRFTISRDNAKNTVYLQMNSLKPEDTAVYYCARRRSYRDNYWGQGTQVTVSS” was “high polyreactivity”; that for “QVQLVESVGGLVQAGGSLRLSCAASGFTFGRYAMGWYRQAPGKERELVAAISFSGGRTYYADSVKGRFTISRDNAKNTVYLQMNSLKPEDTAVYYCAARRRQEHVGRSSYARYDYWGQGTQVTVSS” was “high polyreactivity”.
“QVQLVESVGGLVQAGGSLRLSCAASGFTFRHYVMGWYRQQPGKERELVAAIDVRGGSTYYADSVKGRFTISRDNAKNTVYLQMNSLKPEDTAVYYCAKRLIPRLPNLQKMDYWGQGTQVTVSS”: the “polyreactivity (PSR sort gate)” value is “low polyreactivity”.
The value for “QVQLVESVGGLVQAGGSLRLSCAASGFTFVSNAMGWDRQEPGKERELVAAISTGGRTYYADSVKGRFTISRDNAKNTVYLQMNSLKTEDTAFYYCNARYGLRYVRYGEMDYWGQGTQVTVSS” was “high polyreactivity”.
Take “QVQLVESVGGLVQAGGSLRLSCAASGFTFYGYAMGWYRQAPGKERELVAAITSGGITNYADSVKGRFTISRDNAKNTVYLQMNSLKPEDTAVYYCNVKRRVSGYYGYKYYYWGQGTQVTVSS”: the “polyreactivity (PSR sort gate)” value is “high polyreactivity”.
The value for “QVQLVESVGGLVQAGGSLRLSCAASGFTFYRYAMGWYRQAPGKERELVAAISWSGGSTYYADSVKGRFTISRDNAKNTVYLQMNSLKPEDTAVYYCAARGGYYDYYYWGQGTQVTVSS” was “high polyreactivity”; that for “QVQLVESVGGLVQAGGSLRLSCAASGGIFWVYAMGWYRQAPGKERELVAAISNSDTSTSYADSVKGRFTISRDNAKNTVYLQMNSLKPEDTAVYYCNADSPSLSGDYWGQGTQVTVSS” was “low polyreactivity”; that for “QVQLVESVGGLVQAGGSLRLSCAASGITFAWYALGWYRQAPGKERELVAAITWSGDSTYYADSVKGRFTISRDNAKNTVYLQMNSLKPEDTAVYYCAAAYFSSGYKYYYWGQGTQVTVSS” was “high polyreactivity”.
In the case of “QVQLVESVGGLVQAGGSLRLSCAASGITFDKYAMGWYRQATVKERELVAAISGSDGSTYYADSVKGRFTISRDNAKNNVYLQMNSLKPEDTAVYYCAAESEYAGTYEYDYWGQGTQVTVSS”, the “polyreactivity (PSR sort gate)” value is on record as “low polyreactivity”.
Next, “QVQLVESVGGLVQAGGSLRLSCAASGLILANYAMGWYRQAPGKERELVAAISSSGGSTYYADSVKGRFTISRDNAKNTVYLQMNSLKPEDTAVYYCAKAYRGGSAGKSYYYWGQGTQVTVSS”: “high polyreactivity”; “QVQLVESVGGLVQAGGSLRLSCAASGLMFWYYTMGWYRQAPGKERELVAAIRSGGSTNYADSVKGRFTISRDNAKNTVYLQMNSLKPEDTAVYYCAARKWHSAYDYWGQGTQVTVSS”: “high polyreactivity”; “QVQLVESVGGLVQAGGSLRLSCAASGLTFNHYAMGWYRQAPGKEMELVAAISKSGSSTYYADSVKGRFTISRDNAKNTVYLQMNSLKPEDTAVYYCAARSWDPALYDYWGQGTQVTVSS”: “high polyreactivity”.
Turning to “QVQLVESVGGLVQAGGSLRLSCAASGNTFHTNAMGWYRQAPGKERELVAAITGGGSTYYADSVKGRFTISRDNAKNTVYLQMNSLKPEDTAVYYFNTDVPYGLDVSDTIDYYYWGQGTQVTVSS”, the “polyreactivity (PSR sort gate)” value is given as “low polyreactivity”.
Next, “QVQLVESVGGLVQAGGSLRLSCAASGNTFYVNVMGWYRQAPGKEREFVAAITWIGGSTYYADSVKGRFTISRDNAKNTVYLQMNSLKPEDTAVYYCAADVYNRWWWRAYDYWGQGTQVTVSS”: “high polyreactivity”; “QVQLVESVGGLVQAGGSLRLSCAASGRIFPVYAMGLYRQAPGKERELVAAISKRDGSTSYADSVKGRFTISRDNAKNTVYIQMNSLKPEDTAVYYCNARNHVQVLFRRDYWGQGTQVTVSS”: “low polyreactivity”; “QVQLVESVGGLVQAGGSLRLSCAASGRIFWGYDMGWYRQAPGKEREFVAAISSGGGRTYYADSVKGRFTISRDNAKNTVYLQMNSLKPEDTAVYYCNADSGSYWVPRGYEYWGQGTRVTVSS”: “low polyreactivity”.
In the case of “QVQLVESVGGLVQAGGSLRLSCAASGRIFYVYVMGWYRPAPGKERELVAAISKRGDNTYYSDSVKGRFTISRDNAKNTVYLQMNSLKPEDTAVYYCNVKRYCGRSDYWGQGTQVTVSS”, the “polyreactivity (PSR sort gate)” value was “high polyreactivity”.
Turning to “QVQLVESVGGLVQAGGSLRLSCAASGRILKRNAMGWYRQAPGKERELVAAISWSTGTTYYADSVKGRFTISRDNAKNTVYLQMKSLKPEDTAVYYSAKQIVSGRRVDRNDYWGQGTQVSVSS”, the “polyreactivity (PSR sort gate)” value is reported as “low polyreactivity”.
Next, “QVQLVESVGGLVQAGGSLRLSCAASGRTFDYYALGWYRQAPGKERELVAAISSSGGRTYYADSVKGRFTISRDNAKNTVYLQMNSLKPEDTAVYYCNAVVSRNYEYWGQGTQVTVSS”: “high polyreactivity”; “QVQLVESVGGLVQAGGSLRLSCAASGRTFFKYAMGLYRQAPGKERELVAAITGRGGSTYADSVKGRFTISRDNAKNTVYLQMNSLKPEDTAVYYCAKVYQRGAQYYYYKYDYWGQGTQVTVSS”: “high polyreactivity”.
For “QVQLVESVGGLVQAGGSLRLSCAASGRTFGRYAMGWYRKAPGKERELVAAINRGGSTKYADSVKGRFTISRDNAKNTVYFQMNSLKPEDTAVDYCAKDRHPALHYDYWGQGTQVTVSS”, the “polyreactivity (PSR sort gate)” value is recorded as “low polyreactivity”.
The value for “QVQLVESVGGLVQAGGSLRLSCAASGRTFLRYAMGWYRQAPGKERELVAAISWSGGRTYYADSVKGRFTISRDNAKNTVYLQMNSLKPEDTAVYYCNKVVLYGAHYYYWGQGTQVTVSS” was “high polyreactivity”.

The values above are taken from the nanobody polyreactivity screen of Harvey et al. (2022).
